# Measured values taken from publication PMC6294489, “Structural basis for receptor-regulated SMAD recognition by MAN1” (Nucleic Acids Research, 2018).
# Legend:
# SMAD1C-2E [1] = target: T1, SMAD1C-2E (human, UniProt Q15797-1 259-465, S463E | S465E); experiment: ITC; Trx-MAN1(762–890)-SDED (255 μM) injected into SMAD1C-2E (20 μM) or SMAD2C-2E (25 μM); 20°C; 100 mM Na2HPO4 pH 8.0, 150 mM NaCl, 1 mM TCEP; one set of sites model; conditions: both partners purified
# T1 construct: SMAD1, human, MH2 domain, residues 259–465 with S463E and S465E; Crystals: from pGEX-6P-SMAD1C-2E (GST cleaved); treated as the same molecule; also called phosphorylated-state mimic of the MH2 domain of SMAD1; source: E. coli BL21(DE3) with pG-KJE8; for ITC and thermal shift purified (Ni-NTA, HRV3C protease, MonoQ); not shown: GST, N-terminal, cleaved
# T1 sequence (Q15797 259-465 S463E/S465E): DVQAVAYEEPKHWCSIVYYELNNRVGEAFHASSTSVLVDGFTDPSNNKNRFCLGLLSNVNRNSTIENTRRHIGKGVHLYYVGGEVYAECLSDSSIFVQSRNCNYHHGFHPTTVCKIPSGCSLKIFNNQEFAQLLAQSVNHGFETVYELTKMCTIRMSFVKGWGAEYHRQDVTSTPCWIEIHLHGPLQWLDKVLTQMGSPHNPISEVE
# SMAD2C-2E (human) = experiment: as above
# [2] = target: T2, His-GST-SMAD1C-2E H364Y-F366W (human, UniProt Q15797-1 259-465, H364Y | F366W | S463E | S465E); experiment: pull-down; His-GST-SMAD1C-2E, its mutant or His-GST-SMAD2C-2E (2.5 μM) on Ni-NTA resin, Trx-MAN1(762–890)-SDED (5 μM; 5, 10 and 20 μM in the comparison of SMAD1 with SMAD2); 50 mM Tris–HCl pH 9.0, 200 mM NaCl, 10 mM imidazole, 10% glycerol, 1 mM TCEP; conditions: both partners purified
# T2 construct: SMAD1, human, MH2 domain, residues 259–465 with S463E, S465E, H364Y and F366W; also called H364Y-F366W double mutant of SMAD1; source: E. coli BL21(DE3) with pG-KJE8, purified (Ni-NTA, MonoQ); not shown: His tag, N-terminal, kept; GST, N-terminal, kept
# T2 sequence (Q15797 259-465 H364Y/F366W/S463E/S465E): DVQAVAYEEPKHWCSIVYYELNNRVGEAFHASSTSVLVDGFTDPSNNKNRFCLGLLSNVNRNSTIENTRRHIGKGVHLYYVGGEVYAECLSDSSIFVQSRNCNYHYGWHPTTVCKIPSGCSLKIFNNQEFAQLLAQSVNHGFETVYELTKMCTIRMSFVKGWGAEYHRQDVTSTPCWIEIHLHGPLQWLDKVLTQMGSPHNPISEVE
# SMAD1C-2E [3] = target: T1, SMAD1C-2E; experiment: thermal shift assay; SMAD1C-2E or SMAD2C-2E (10 μM) with Trx-MAN1(762–911)-SDED (10 μM), SYPRO Orange; 10 mM Tris–HCl pH 9.0, 200 mM NaCl, 1 mM TCEP; 20 to 95°C; conditions: both partners purified
Kd (SMAD1C-2E [1]),Kd (SMAD2C-2E (human)),binding result [2],Binder,Tm of SMAD1C-2E with the binder (48.5°C without) (SMAD1C-2E [3])
350 nM,3300 nM,binds,"Trx-MAN1(762–890)-SDED (domain or fragment, human, UniProt Q9Y2U8 762-890, looked up, MAN1, human, residues 762–890 (ULM and UHM domain); Layout: His-tag, HRV3C site, Trx, Gly-Ser, MAN1, Ser-Asp-Glu-Asp; His tag cut off with HRV3C; source: E. coli Rosetta (DE3), purified (Ni-NTA, HRV3C protease, MonoQ); not shown: His tag, N-terminal, cleaved; Trx, N-terminal, kept; SDED (Ser-Asp-Glu-Asp), C-terminal, kept) SKVWQGQAFHLDRRNSPPNSLTPCLKIRNMFDPVMEIGDQWHLAIQEAILEKCSDNDGIVHIAVDKNSREGCVYVKCLSPEYAGKAFKALHGSWFDGKLVTVKYLRLDRYHHRFPQALTSNTPLKPSNK",
,,,"Trx-MAN1(762–911)-SDED (domain or fragment, human, UniProt Q9Y2U8 762-911, looked up, MAN1, human, residues 762–911 (ULM, UHM domain and C-terminal disordered region); source: E. coli Rosetta (DE3), purified (Ni-NTA, HRV3C protease, MonoQ); not shown: His tag, N-terminal, cleaved; Trx, N-terminal, kept; SDED (Ser-Asp-Glu-Asp), C-terminal, kept) SKVWQGQAFHLDRRNSPPNSLTPCLKIRNMFDPVMEIGDQWHLAIQEAILEKCSDNDGIVHIAVDKNSREGCVYVKCLSPEYAGKAFKALHGSWFDGKLVTVKYLRLDRYHHRFPQALTSNTPLKPSNKHMNSMSHLRLRTGLTNSQGSS",50.5 °C
